Laboratory results taken from publication PMC9596371 (Nature Chemical Biology, 2022).

Target: OC43 spike protein (FL-GCN4-Avi-His, 2P, biotinylated) (human coronavirus OC43, strain of …, UniProt P36334, stabilised, biotin on the Avi tag)
Assay: ELISA
Details: both partners purified

B1: COV2-2449 IgG (antibody, V domains shown)
VH: QVQLVESGGGVVQPGRSLRLSCATSGFTFSSFALHWVRQAPGKGLEWVTVISDDGNNKYYVDSVKGRFTISRDNSKNTLFLQMNSLRVEDTAIYYCARASYNSNWSIGEYFRDWGQGTLVTVSS
VL: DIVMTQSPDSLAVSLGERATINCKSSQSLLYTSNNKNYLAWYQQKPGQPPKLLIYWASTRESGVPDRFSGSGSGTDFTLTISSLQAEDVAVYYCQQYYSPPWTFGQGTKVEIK
Question: Does B1 bind?
Answer: Result: binds
